This is an account of results in patent US9623039B2, “Treatment and prevention of pathological conditions using iduna related techniques and compositions” (VALTED, LLC, priority 2010, dated 2017).

A word on the Kd: it is a measure of binding affinity in units of concentration. The term EC50 denotes the concentration that produces a half-maximal response.

Series [1] deals with PARP-1. The series can be described thus: PARP inhibition assay (32P-NAD incorporation into PAR polymer). The class given is biochemical. Conditions: 32P-NAD incorporation into radiolabeled PAR polymer. How it is done:
(§1) Because PARP-1 activation plays a prominent role in NMDA excitotoxicity we tested whether PARP-1 activity is directly affected by Iduna. PARP-1 activity was assessed by incorporation of biotinylated PAR onto histone proteins.
PARP Inhibition Assay: To evaluate the ability of Iduna to act as a PARP inhibitor, [^32P]-labeled automodified PARP-1 was synthesized in presence of GST, GST-Iduna or PARG, respectively. To purify the [^32P]-labeled automodified PARP-1, the reaction mixture was incubated with anti-PAR antibody for 4 h at 4° C. and then sequentially incubated with protein-G slurry for 1 h at 4° C. Samples were washed two times with PBS and the amount of [^32P]-labeled automodified PARP-1 was measured by LS 6500 Liquid Scintillation Counting System.

In a further series the test system is PAR polymer. The experiment in a line: Competition binding of unlabeled PAR polymer against [32P]-labeled PAR polymer. The procedure: The affinity of Iduna and Iduna-YRAA for PAR binding was determined by a competition assay with increasing concentrations of unlabeled PAR polymer against 2.5 nM [^32P]-labeled PAR polymer (mean size of 40 ADP-ribose units) (FIG. 29). […] The PAR polymer synthesized by in vitro automodification of PARP-1 has a mean length of 40 ADP-ribose residues and accordingly the concentration of PAR is given as a function of polymer molecules with a mean size of 40 ADP-ribose units. These concentrations of PAR polymers are within the range of polymer concentrations found in intact cells during NMDA excitotoxicity and N-methyl-N-nitro-N-nitrosoguanidine (MNNG) toxicity. PAR polymer fails to bind to Iduna-YRAA (FIG. 29). […] The observed Kd is 10 times less than the PAR polymer concentration found after NMDA-induced excitotoxicity in cortical neurons.
Nitrocellulose PAR-binding Assay: Synthetic peptides or purified proteins were diluted in TBS-T buffer (1 μg/μl) and loaded onto a nitrocellulose membrane (0.05 μm) using a dot blot manifold system (Life Technologies). The membranes were washed once with TBS-T buffer, removed from the manifold and air dried. The membranes were then incubated in 10 ml of TBS-T buffer containing an indicated concentration of both [^32P]-labeled automodified PARP-1 and [^32P]-labeled PAR polymer for 3 h at room temperature with constant shaking. The membranes were washed with TBS-T buffer at 4° C. until no radioactivity could be detected in the waste. Finally, the membrane was air dried and subjected to autoradiography on Bio-Max MR (Kodak) films or analyzed by Cerenkov counting using an Instant Imager system (Perkin Elmer).

Series [2] addresses T1, PARP-1 (Homo sapiens, UniProt P09874).
T1 construct: purchased Trevigen
The experiment in a line: Chemiluminescent PARP assay (biotinylated PAR onto histone). Type of series: biochemical. Particulars: incorporation of biotinylated PAR onto histone proteins. The procedure:
as §1
Chemiluminescent PARP assay for poly(ADP-ribosyl)ation of Histone H1: Activity of PARP-1 was determined by Trevigen Universal chemiluminescent PARP assay kit (Trevigen, Gaithersburg, Md., USA) in the presence of Iduna or the PARP-1 inhibitor 3-aminobenzamide (3-AB). According to manufacturer's instructions, the incorporation of biotinylated NAD+ (Trevigen) into the poly(ADP-ribose) polymer primed at solid phase immobilized histone H1 (Trevigen) was detected by the chemiluminescent assay, either in the presence or absence of recombinant Iduna. Reactions were performed with 34 μM total biotinylated NAD+ for 60 min at 25° C. in triplicates. Chemiluminescence was measured using a fluorescence multi-well plate reader (SOSTmax, Sunnyvale, Calif.) with an excitation at 544 nm excitation/590 nm emission. In the parallel wells, PARP1 activity was measured after the 3-aminobenzamide treatment at the same concentration of biotinylated NAD+ (34 μM).

The nature of series [3]: Middle cerebral artery occlusion. Type of series: in vivo, mouse. How it is done: Middle Cerebral Artery Occlusion (MCAD): To occlude the middle cerebral artery, mice were anesthetized with 1.5-2% isoflurane and maintained at normothermic temperature. A 7-0 monofilament with an enlarged silicone tip was passed through the right internal carotid artery to the base of the middle cerebral artery. Occlusion was confirmed by laser-Doppler flowmetry with a probe placed on thinned skull over the lateral parietal cortex. After 60 min of occlusion, the filament was removed and reperfusion was verified. At 24 h of reperfusion, the brain was harvested, sectioned into five coronal slabs, and stained with the vital dye, triphenyltetrazolium chloride. Infarct area was measured on the anterior and posterior surfaces of each slab and integrated to obtain infarct volume with correction for tissue swelling. The investigator performing the surgery and analyzing infarct size was unaware of the genotype of the mouse.
Neurobehavioural Activity: Spontaneous motor activity was evaluated for 5 min by placing the animals in a mouse cage for 5 minutes. […] Neurological deficits were evaluated by an observer blinded to the treatment and genotype of the animals with a scale of 0-4 (0 no neurological deficit, 4 severe neurological deficit). […] Recordings were evaluated by an observer blinded to the treatment and genotype of the animals. […]

For a further series, the system named is primary neurons. The experiment in a line: H2O2-induced cell death in primary neurons. Type of series: cell-based, mouse. Conditions: 100 μM H2O2. The procedure:
FIGS. 44 and 45—Iduna protects against peroxide-induced cell death in primary neurons. Primary neuronal cultures were transduced with lentiviruses expressing GFP, GFP-Iduna or GFP-Iduna-YRAA. 4 days following lentiviral transduction, cultures were treated with H2O2 (100 μM or 500 μM) and cell death assessed 24 h later using PI and Hoechst staining.
Cell Death Assessment: Following exposure of neuronal cultures to the various treatments neuronal survival was quantified and presented as percent of cell death. Percent cell death was determined as the ratio of live-to-dead cells compared with the percent cell death in control wells to account for cell death attributable to mechanical stimulation of the cultures. Quantification of neuronal survival was determined by staining treated cultures with 5 μM Hoechst 33342 and 2 μM propidium iodide (PI) (Invitrogen, Carlsbad, Calif.). Culture plates were placed on a mechanized stage of a Zeiss microscope and photomicrographs were collected by a blinded observer. The numbers of total and dead (PI positive) cells were counted by automated computer assisted software (Axiovision 4.6, Zeiss, Germany). The raw counts are presented in an Excel file for generation of percent cell death and statistical analysis. Glial nuclei fluoresce at a lower intensity than neuronal nuclei and were gated out by the software program. […]

T1 sequence (P09874 whole entry): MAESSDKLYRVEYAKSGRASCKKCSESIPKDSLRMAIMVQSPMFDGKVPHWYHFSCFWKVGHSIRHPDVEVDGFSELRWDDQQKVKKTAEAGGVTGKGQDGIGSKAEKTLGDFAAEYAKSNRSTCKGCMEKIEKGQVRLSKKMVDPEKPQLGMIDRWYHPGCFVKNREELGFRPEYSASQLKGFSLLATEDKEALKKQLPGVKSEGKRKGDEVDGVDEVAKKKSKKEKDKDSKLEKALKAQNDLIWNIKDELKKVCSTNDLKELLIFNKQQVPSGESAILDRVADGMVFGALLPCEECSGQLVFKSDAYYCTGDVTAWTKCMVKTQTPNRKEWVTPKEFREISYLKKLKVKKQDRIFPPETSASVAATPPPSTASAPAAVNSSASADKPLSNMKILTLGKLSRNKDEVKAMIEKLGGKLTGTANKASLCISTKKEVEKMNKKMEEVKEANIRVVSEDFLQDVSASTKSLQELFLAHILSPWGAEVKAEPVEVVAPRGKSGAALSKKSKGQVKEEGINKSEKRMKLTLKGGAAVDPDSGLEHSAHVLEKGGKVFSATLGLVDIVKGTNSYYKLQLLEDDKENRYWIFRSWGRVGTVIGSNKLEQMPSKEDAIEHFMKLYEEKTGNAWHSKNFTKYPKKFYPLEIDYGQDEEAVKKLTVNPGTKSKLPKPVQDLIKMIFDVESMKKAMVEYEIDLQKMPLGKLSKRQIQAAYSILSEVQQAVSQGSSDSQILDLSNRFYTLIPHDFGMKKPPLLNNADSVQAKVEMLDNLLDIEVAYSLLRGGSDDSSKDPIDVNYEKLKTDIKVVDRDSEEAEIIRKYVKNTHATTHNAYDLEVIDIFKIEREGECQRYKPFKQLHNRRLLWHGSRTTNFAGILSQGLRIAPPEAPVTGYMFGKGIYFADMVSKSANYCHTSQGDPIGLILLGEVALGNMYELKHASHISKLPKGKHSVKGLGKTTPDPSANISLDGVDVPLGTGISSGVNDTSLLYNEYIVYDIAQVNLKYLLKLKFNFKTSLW

B1: Iduna: novel NMDA-induced cell survival protein, PAR-dependent E3 ligase; 359 amino acids (protein)
chain: MEMAGCGEIDHSINMLPTNKKANESCSNTAPSLTVPECAICLQTCVHPVSLPCKHVFCYLCVKGASWLGKRCALCRQEIPEDFLDKPTLLSPEELKAASRGNGEYAWYYEGRNGWWQYDERTSRELEDAFSKGKKNTEMLIAGFLYVADLENMVQYRRNEHGRRRKIKRDIIDIPKKGVAGLRLDCDTNTVNLARESSADGADSGSAQTGASVQLAVPSSTRPLTSVDGQLTSPVTPSPDAGISLEDSFAHLQLSGDSIAERSHRGEGEEDHESPSSGRVPDTSVEETESDASSDSEDAPVVVAQHSLTQQRPLVPNGNQTVADQSDRSGTDRSVAGGGTMSVNVRSRRPDGQCTVIEV
Consider B1, for which the PARP-1 catalytic activity entry in the series on PARP-1 [1] is given as “fails to inhibit PARP-1 catalytic activity”. Further, in the series with PAR polymer (competitive binding curve), the “maximum binding capacity (Bmax)” value turned out to be 3.04 ± 0.16 µmol. Further, at PAR polymer (homologous competitive binding curve, Cheng-Prusoff equation, read-out: dissociation constant (Kd)), the dissociation constant Kd stood at 12 nM. For the same molecule, the EC50 on PAR polymer (unlabeled PAR polymer against 2.5 nM [32P]-labeled PAR polymer, mean size 40 ADP-ribose units, read-out: EC50 of wild type Iduna for PAR polymer) was determined as 14.5 ± 0.13 nM. Moreover, the PARP-1 activity entry with PARP-1 [2] is on record as “has no effect”. Moreover, in series [3] (Iduna transgenic mice vs wild type, 60 min occlusion), the “reduction of infarct volume” value was determined as 50%. Besides, in series [3] (Iduna-Tg mice vs WT), the “neurological function following stroke” value is “improved neurological function”. Also, the “protection against H2O2 toxicity” value in the series on primary neurons was “protects only against 100 μM H2O2”.
